In PMC12175530:

What was measured:
[1] = molecular target: T1, EseE-His6 (Edwardsiella piscicida) (UniProt A0AAU8P1U3); assay: EMSA; settings: 20 mM Tris-HCl pH 7.5, 50 mM MgCl2, 5% glycerol, 20 uL, 2 h at 25 C
T1 sequence: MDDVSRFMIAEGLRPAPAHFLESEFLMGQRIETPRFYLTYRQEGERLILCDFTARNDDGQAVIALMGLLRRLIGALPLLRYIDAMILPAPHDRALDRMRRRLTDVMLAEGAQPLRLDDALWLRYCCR

[2] = molecular target: T2, EsrB-His6 (Edwardsiella piscicida) (UniProt A0AAU8P338); assay: EMSA; settings: 20 mM Tris-HCl pH 7.5, 50 mM MgCl2, 5% glycerol, 20 uL, 2 h at 25 C
T2 sequence: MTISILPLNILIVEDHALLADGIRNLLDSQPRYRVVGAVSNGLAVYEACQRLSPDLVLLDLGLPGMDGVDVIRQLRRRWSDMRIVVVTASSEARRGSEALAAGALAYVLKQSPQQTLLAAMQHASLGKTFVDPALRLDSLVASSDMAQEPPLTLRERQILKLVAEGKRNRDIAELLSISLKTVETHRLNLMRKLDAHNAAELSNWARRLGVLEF

GCCCGAACACCCGAGAAAAACCAACGTAACTTCAGGTAATTACCCGATATCTTTCGCGCGGGTTCAGCACCCAGAATGGGCCGGGGAAAAAGAGTTCGTCTCCCGATAACCAAACAGCAAACGTTATGCAGCTTCTCGAAAGTTCGCCCGCTAACGGCGTTCTAGCATCACCTCATCGGTAGTCAATAGGAGGTTTCACT (double strand) [escC -200 to -1]
binding [1]: binds
binding [2]: binds
